Results as given in patent publication US20230372522A1 (KUNMING SINOWAY NATURAL PHARMACEUTICALS, published 2023).
Positions count from the first letter of the chain named.

B1: Recombinant immunotoxin VH ver 1 + VL ver 4 (H1L4 by the HmLn naming of paragraph 88) (other)
VL: MDIQMTQSPSTLSASVGDRVTITCRASQDISNYLNWFQQRPGQSPRLLIYYTSILHSGVPSRFSGSGSGTDYTLTISSLQPEDFATYYCQQGNTLPWTFGCGTKVEIK
chain: MEVQLVESGGGLVKPGGSLRLSCAASGFAFSIYDMSWVRQAPGKCLEWVAYISSGGGTTYYPDSVKGRFTISRENAKNSLYLQMNSLKSEDTAMYYCARHSGYGTHWGVLFAYWGQGTMVTVSSKASGGPEGGSLAALTAHQACHLPLETFTRHRQPRGWEQLEQCGYPVQRLVALYLAARLSWNQVDQVIRNALASPGSGGDLGEAIREQPEQARLALTLAAAESERFVRQGTGNDEAGAANGPADSGDALLERNYPTGAEFLGDGGDVSFSTRGTQNWTVERLLQAHRQLEERGYVFVGYHGTFLEAAQSIVFGGVRARSQDLDAIWRGFYIAGDPALAYGYAQDQEPDARGRIRNGALLRVYVPRSSLPGFYRTSLTLAAPEAAGEVERLIGHPLPLRLDAITGPEEEGGRLETILGWPLAERTVVIPSAIPTDPRNVGGDLDPSSIPDKEQAISALPDYASQPGKPPREDLK
notes: dsFv-PE38 heterodimer
B2: HA22 (moxetumomab pasudotox; HA22 VH-PE38 + HA22 VL), made in-house (other)
VL: MDIQMTQTTSSLSASLGDRVTISCRASQDISNYLNWYQQKPDGTVKLLIYYTSILHSGVPSRFSGSGSGTDYSLTISNLEQEDFATYFCQQGNTLPWTFGCGTKLEIK
chain: B1 chain with R20K, A41T, G43E, S64T, E74D, S79T, N85S, M119L, S124A
notes: also called CAT-8015; HA22 VH / HA22 VL
B3: H2L2 humanized anti-CD22 recombinant immunotoxin (VH ver 2 + VL ver 2) (other)
VL: B1 VL with P9T, F37Y, G42D, Q43G, P45V, R46K, P81D, Y88F
chain: B1 chain with A41T, G43E
notes: dsFv-PE38 heterodimer
B4: Recombinant immunotoxin VH ver 5 + VL ver 4 (H5L4 by the HmLn naming of paragraph 88) (other)
VL: B1 VL
chain: B1 chain with V38I, D63G, K88R, M94V
notes: dsFv-PE38 heterodimer
B5: H1L2 humanized anti-CD22 recombinant immunotoxin (VH ver 1 + VL ver 2) (other)
VL: B1 VL with P9T, F37Y, G42D, Q43G, P45V, R46K, P81D, Y88F
chain: B1 chain
notes: dsFv-PE38 heterodimer, VH and VL linked by a disulfide bond
B6: Recombinant immunotoxin VH ver 1 + VL ver 3 (H1L3 by the HmLn naming of paragraph 88) (other)
VL: B1 VL with L47R
chain: B1 chain
B7: Recombinant immunotoxin VH ver 2 + HA22 VL (other)
VL: B2 VL
chain: B1 chain with A41T, G43E
notes: dsFv-PE38 heterodimer
B8: Recombinant immunotoxin VH ver 4 + VL ver 4 (H4L4 by the HmLn naming of paragraph 88) (other)
VL: B1 VL
chain: B1 chain with V38I, D63G, K88R, S89A, E90G, M94V
notes: dsFv-PE38 heterodimer; The fusion entry is used here

These binders were tested against T1, CD22 on Daudi cells (Daudi cell line expressing a high level of CD22) (UniProt P20273 20-847, limits assumed) (assay: cell-based or functional assay).

Binder | In Vitro potency assay (pM): EC50 of Daudi cell death, CCK-8 [pM]
B1 | 13.8
B2 | 2.72
B3 | 4.26
B4 | 34.9
B5 | 4.58
B6 | 57.2

Target: T1, CD22 on Daudi cells (Daudi cell line …)
Assay: cell-based or functional assay
Remark: another data set of the same source

Binder | In Vitro potency assay (EC50, normalized against HA22)
B1 | 4.12 fold of HA22
B2 | 1 fold of HA22
B3 | 1.23 fold of HA22
B4 | 10.7 fold of HA22
B5 | 1.32 fold of HA22
B6 | 4.59 fold of HA22

Each binder was assayed against T2, recombinant human Siglec-2/CD22 Fc chimera protein (R&D systems, Cat #1968-SL) (human, UniProt P20273 20-687) (assay: ELISA, immobilized human CD22 Fc chimera).
T2 construct: Bought reagent, immobilized antigen in the ELISA; Fc part of the bought chimera not given

Binder | EC50 [nM]
B1 | 0.2
B2 | 0.47
B7 | 0.64
B3 | 0.56
B4 | 2.15
B5 | 0.54
B8 | 6.73

Target: T2, recombinant human Siglec-2/CD22 Fc …
Assay: ELISA, immobilized human CD22 Fc chimera
Remark: another data set of the same source

Binder | EC50, normalized against HA22
B1 | 1.17 fold of HA22
B2 | 1 fold of HA22
B7 | 0.89 fold of HA22
B3 | 1.1 fold of HA22
B4 | 12.5 fold of HA22
B5 | 0.81 fold of HA22
B8 | 39.1 fold of HA22

What follows are binders tested against biotinylated CD22 (UniProt P20273 20-687, limits assumed, biotinylated (site not stated)) (assay: Octet (BLI), biotinylated CD22 on streptavidin biosensors).

Binder | Kd [nM]
B2 | 4.08 to 5.81
B3 | 5.01 to 7.02
B5 | 4.66 to 7.21

What follows are binders tested against T2, recombinant human Siglec-2/CD22 Fc … (assay: ELISA, immobilized human CD22 Fc chimera, detection with anti-Pseudomonas exotoxin A antibody).

Binder | EC50 [nM]
B2 | 0.47
B3 | 0.56
B5 | 0.54
